Laboratory results published in paper PMC7473855.

Target: Ty1 nanobody, biotinylated on the C-terminus (alpaca)
Test: BLI; comparative binding test; biotinylated nanobody on streptavidin (SAX) biosensors at about 0.7 nm, dipped into monomeric RBD at 550 nM; 2xPBS with 0.05% Tween-20; Octet RED

Ty1 nanobody, biotinylated on the C-terminus (alpaca), sequence (VHH, as listed by the source): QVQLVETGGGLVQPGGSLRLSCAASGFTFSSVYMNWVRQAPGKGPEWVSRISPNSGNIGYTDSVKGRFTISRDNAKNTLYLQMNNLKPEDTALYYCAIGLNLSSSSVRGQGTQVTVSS

**Q.** With “SARS-CoV-2 spike receptor-binding domain (RBD) (from UniProt P0DTC2 319-541) (domain or fragment)” as the substance, how does the BLI response at 550 nM RBD read?
**A.** 1.5 nm
